Experimental data published in article PMC4378652 (Molecular and cellular endocrinology, 2015).

Molecular target: T1, rat FSH receptor (rat testis homogenate) (rat (endogenous in rat testis), UniProt P20395 18-692)
T1 sequence (looked up): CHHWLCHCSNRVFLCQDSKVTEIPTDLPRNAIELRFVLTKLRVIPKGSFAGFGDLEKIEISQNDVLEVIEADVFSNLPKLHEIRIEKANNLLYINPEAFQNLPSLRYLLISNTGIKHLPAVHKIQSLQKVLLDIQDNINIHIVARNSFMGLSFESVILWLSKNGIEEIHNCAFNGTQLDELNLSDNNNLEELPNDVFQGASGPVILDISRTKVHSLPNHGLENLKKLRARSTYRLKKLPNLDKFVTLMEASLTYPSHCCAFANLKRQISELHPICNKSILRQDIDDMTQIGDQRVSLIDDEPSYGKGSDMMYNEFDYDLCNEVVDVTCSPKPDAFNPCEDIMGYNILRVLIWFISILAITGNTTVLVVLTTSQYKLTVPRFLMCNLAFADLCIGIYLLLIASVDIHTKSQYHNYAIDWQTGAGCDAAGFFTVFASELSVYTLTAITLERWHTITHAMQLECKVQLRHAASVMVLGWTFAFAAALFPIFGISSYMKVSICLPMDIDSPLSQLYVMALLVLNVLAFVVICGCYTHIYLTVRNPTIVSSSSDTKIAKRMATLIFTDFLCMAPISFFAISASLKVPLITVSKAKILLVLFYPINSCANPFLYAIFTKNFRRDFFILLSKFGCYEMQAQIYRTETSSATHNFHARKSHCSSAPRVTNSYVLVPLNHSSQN
Test: radioligand binding

Binder	ID50 [ng]
Pituitary hFSH^24/21 (AFP7298A) (ligand, N-glycosylated (positions not given) | mixture of FSHβ^24 (fully glycosylated) and FSHβ^21, FSHβ^24 the more abundant) chain 1: not shown chain 2: NSCELTNITIAIEKEECRFCISINTTWCAGYCYTRDLVYKDPARPKIQKTCTFKELVYETVRVPGCAHHADSLYTYPVATQCHCGKCDSDSTDCTVRGLGPSYCSFGEMKE	114
Pituitary hFSH^24 (ligand, N-glycosylated (two N-glycans, positions not given) | fully glycosylated FSHβ^24 (N-glycans at Asn7 and Asn24)) chain 1: not shown chain 2: NSCELTNITIAIEKEECRFCISINTTWCAGYCYTRDLVYKDPARPKIQKTCTFKELVYETVRVPGCAHHADSLYTYPVATQCHCGKCDSDSTDCTVRGLGPSYCSFGEMKE	253
